The supplement of paper PMC10567573

B1: GLTSCR2 (parent)
chain: YNPSFEDHQTLLSAAHEVELQRQK
B2: ZNF193 (parent)
chain: QKRYHCKECGKVFSQSAGLIQHQR

Variants of: B1
Assay: protein stability index of a GFP-peptide fusion (GPS, HEK-293T) (PSI 1-6); higher = more stable
Settings: c terminus: a fixed tail appended
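Further: lentivirally expressed fusions sorted by FACS into six bins by GFP to DsRed ratio, PSI derived from sequencing read proportions per bin multiplied by bin number.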

Variant	protein stability index
YNPSFEDHQTLLSAAHEVELIRQK [Q21I]	3.26
YNPSFEDHQTLLSAAHEVELRRQK [Q21R]	3.95
YNPSFEDHQTLLSAAHEVELKRQK [Q21K]	3.17
YNPSFEDHQTLLSAAHEVELSRQK [Q21S]	3.96
YNPSFEDHQTLLSAAHEVELFRQK [Q21F]	3.06
YNPSFEDHQTLLSAAHEVELNRQK [Q21N]	3.71
YNPSFEDHQTLLSAAHEVELCRQK [Q21C]	3.61
YNPSFEDHQTLLSAAHEVELARQK [Q21A]	3.34
YNPSFEDHQTLLSAAHEVELVRQK [Q21V]	3.28
YNPSFEDHQTLLSAAHEVELMRQK [Q21M]	3.06
YNPSFEDHQTLLSAAHEVELDRQK [Q21D]	4.16
YNPSFEDHQTLLSAAHEVELYRQK [Q21Y]	3.18
YNPSFEDHQTLLSAAHEVELWRQK [Q21W]	3.06
YNPSFEDHQTLLSAAHEVELHRQK [Q21H]	2.96
YNPSFEDHQTLLSAAHEVELPRQK [Q21P]	4.07
YNPSFEDHQTLLSAAHEVELLRQK [Q21L]	2.96
YNPSFEDHQTLLSAAHEVELTRQK [Q21T]	3.44
YNPSFEDHQTLLSAAHEVELERQK [Q21E]	3.42
YNPSFEDHQTLLSAAHEVELGRQK [Q21G]	3.26
YNPSFEDHQTLLSAAHEVEKQRQK [L20K]	4.44
YNPSFEDHQTLLSAAHEVEMQRQK [L20M]	3.67
YNPSFEDHQTLLSAAHEVERQRQK [L20R]	3.89
YNPSFEDHQTLLSAAHEVEYQRQK [L20Y]	3.74

Variant	protein stability index
YNPSFEDHQTLLSAAHEVESQRQK [L20S]	4.26
YNPSFEDHQTLLSAAHEVENQRQK [L20N]	4.09
YNPSFEDHQTLLSAAHEVEHQRQK [L20H]	4.51
YNPSFEDHQTLLSAAHEVEPQRQK [L20P]	4.46
YNPSFEDHQTLLSAAHEVEVQRQK [L20V]	3.63
YNPSFEDHQTLLSAAHEVEIQRQK [L20I]	3.71
YNPSFEDHQTLLSAAHEVEQQRQK [L20Q]	3.87
YNPSFEDHQTLLSAAHEVEWQRQK [L20W]	3.19
YNPSFEDHQTLLSAAHEVETQRQK [L20T]	4.39
YNPSFEDHQTLLSAAHEVELQRRK [Q23R]	3.5
YNPSFEDHQTLLSAAHEVELQRYK [Q23Y]	3.19
YNPSFEDHQTLLSAAHEVELQREK [Q23E]	4.13
YNPSFEDHQTLLSAAHEVELQRNK [Q23N]	3.45
YNPSFEDHQTLLSAAHEVELQRFK [Q23F]	2.56
YNPSFEDHQTLLSAAHEVELQRKK [Q23K]	3.75
YNPSFEDHQTLLSAAHEVELQRMK [Q23M]	3.4
YNPSFEDHQTLLSAAHEVELQRAK [Q23A]	3.75
YNPSFEDHQTLLSAAHEVELQRCK [Q23C]	3.06
YNPSFEDHQTLLSAAHEVELQRTK [Q23T]	3.68
YNPSFEDHQTLLSAAHEVELQRHK [Q23H]	3.33
YNPSFEDHQTLLSAAHEVELQRGK [Q23G]	4.12
YNPSFEDHQTLLSAAHEVELQRSK [Q23S]	3.63
YNPSFEDHQTLLSAAHEVELQRWK [Q23W]	2.95

Variant	protein stability index
YNPSFEDHQTLLSAAHEVELQRPK [Q23P]	3.96
YNPSFEDHQTLLSAAHEVELQRDK [Q23D]	4.23
YNPSFEDHQTLLSAAHEVELQRIK [Q23I]	3.23
YNPSFEDHQTLLSAAHEVELQRLK [Q23L]	3.21
YNPSFEDHQTLLSAAHEVELQRVK [Q23V]	3.57
YNPSFEDHQTLLSAAHEVELQRQD [K24D]	4.28
YNPSFEDHQTLLSAAHEVELQRQQ [K24Q]	3.81
YNPSFEDHQTLLSAAHEVELQRQV [K24V]	3.31
YNPSFEDHQTLLSAAHEVELQRQR [K24R]	3.21
YNPSFEDHQTLLSAAHEVELQRQH [K24H]	3.23
YNPSFEDHQTLLSAAHEVELQRQP [K24P]	3.33
YNPSFEDHQTLLSAAHEVELQRQM [K24M]	3.28
YNPSFEDHQTLLSAAHEVELQRQF [K24F]	2.66
YNPSFEDHQTLLSAAHEVELQRQG [K24G]	3.78
YNPSFEDHQTLLSAAHEVELQRQC [K24C]	3.22
YNPSFEDHQTLLSAAHEVELQRQI [K24I]	3.33
YNPSFEDHQTLLSAAHEVELQRQA [K24A]	3.39
YNPSFEDHQTLLSAAHEVELQRQW [K24W]	2.79
YNPSFEDHQTLLSAAHEVELQRQT [K24T]	3.98
YNPSFEDHQTLLSAAHEVELQRQN [K24N]	3.96
YNPSFEDHQTLLSAAHEVELQRQL [K24L]	3.48
YNPSFEDHQTLLSAAHEVELQRQS [K24S]	3.97
YNPSFEDHQTLLSAAHEVELQRQE [K24E]	4.36

Variant	protein stability index
YNPSFEDHQTLLSAAHEVELQRQY [K24Y]	3.18
YNPSFEDHQTLLSAAHEVELQPQK [R22P]	4.21
YNPSFEDHQTLLSAAHEVELQHQK [R22H]	3.99
YNPSFEDHQTLLSAAHEVELQFQK [R22F]	3.43
YNPSFEDHQTLLSAAHEVELQTQK [R22T]	3.96
YNPSFEDHQTLLSAAHEVELQQQK [R22Q]	4.24
YNPSFEDHQTLLSAAHEVELQEQK [R22E]	4.69
YNPSFEDHQTLLSAAHEVELQNQK [R22N]	4.32
YNPSFEDHQTLLSAAHEVELQLQK [R22L]	3.18
YNPSFEDHQTLLSAAHEVELQSQK [R22S]	3.9
YNPSFEDHQTLLSAAHEVELQMQK [R22M]	3.4
YNPSFEDHQTLLSAAHEVELQVQK [R22V]	3.7
YNPSFEDHQTLLSAAHEVELQKQK [R22K]	4.13
YNPSFEDHQTLLSAAHEVELQWQK [R22W]	2.71
YNPSFEDHQTLLSAAHEVELQGQK [R22G]	3.86
YNPSFEDHQTLLSAAHEVELQCQK [R22C]	3.35
YNPSFEDHQTLLSAAHEVELQIQK [R22I]	2.91
YNPSFEDHQTLLSAAHEVELQYQK [R22Y]	3.16
YNPSFEDHQTLLSAAHEVELQDQK [R22D]	4.84
YNPSFEDHQTLLSAAHEVELQAQK [R22A]	4.18

Variants of: B2
Assay: as above
Settings: c terminus: a fixed tail appended

Variant	protein stability index
QKVYHCKECGKVFSQSAGLIQHQR [R3V]	3.2
QKFYHCKECGKVFSQSAGLIQHQR [R3F]	3.6
QKIYHCKECGKVFSQSAGLIQHQR [R3I]	3.55
QKHYHCKECGKVFSQSAGLIQHQR [R3H]	2.92
QKGYHCKECGKVFSQSAGLIQHQR [R3G]	2.93
QKEYHCKECGKVFSQSAGLIQHQR [R3E]	3.26
QKKYHCKECGKVFSQSAGLIQHQR [R3K]	3.23
QKTYHCKECGKVFSQSAGLIQHQR [R3T]	3.59
QKPYHCKECGKVFSQSAGLIQHQR [R3P]	2.98
QKDYHCKECGKVFSQSAGLIQHQR [R3D]	2.35
QKMYHCKECGKVFSQSAGLIQHQR [R3M]	3.23
QKLYHCKECGKVFSQSAGLIQHQR [R3L]	3.58
QKQYHCKECGKVFSQSAGLIQHQR [R3Q]	3.33
QKCYHCKECGKVFSQSAGLIQHQR [R3C]	3.48
QKNYHCKECGKVFSQSAGLIQHQR [R3N]	2.87
QKYYHCKECGKVFSQSAGLIQHQR [R3Y]	3.52
QKWYHCKECGKVFSQSAGLIQHQR [R3W]	3.52
QKSYHCKECGKVFSQSAGLIQHQR [R3S]	3.12
QKAYHCKECGKVFSQSAGLIQHQR [R3A]	3.18
QKRYNCKECGKVFSQSAGLIQHQR [H5N]	2.77
QKRYKCKECGKVFSQSAGLIQHQR [H5K]	3.92
QKRYLCKECGKVFSQSAGLIQHQR [H5L]	3.75
QKRYTCKECGKVFSQSAGLIQHQR [H5T]	3.23
QKRYVCKECGKVFSQSAGLIQHQR [H5V]	3.95
QKRYFCKECGKVFSQSAGLIQHQR [H5F]	3.01

Variant	protein stability index
QKRYMCKECGKVFSQSAGLIQHQR [H5M]	4.01
QKRYDCKECGKVFSQSAGLIQHQR [H5D]	2.37
QKRYRCKECGKVFSQSAGLIQHQR [H5R]	3.9
QKRYPCKECGKVFSQSAGLIQHQR [H5P]	3.1
QKRYGCKECGKVFSQSAGLIQHQR [H5G]	2.23
QKRYICKECGKVFSQSAGLIQHQR [H5I]	3.91
QKRYSCKECGKVFSQSAGLIQHQR [H5S]	2.94
QKRYCCKECGKVFSQSAGLIQHQR [H5C]	3.34
QKRYECKECGKVFSQSAGLIQHQR [H5E]	3.62
QKRYWCKECGKVFSQSAGLIQHQR [H5W]	2.98
QKRYACKECGKVFSQSAGLIQHQR [H5A]	3.25
QKRYYCKECGKVFSQSAGLIQHQR [H5Y]	3.29
QKRYQCKECGKVFSQSAGLIQHQR [H5Q]	3.88
QDRYHCKECGKVFSQSAGLIQHQR [K2D]	3.31
QERYHCKECGKVFSQSAGLIQHQR [K2E]	3.08
QCRYHCKECGKVFSQSAGLIQHQR [K2C]	2.39
QMRYHCKECGKVFSQSAGLIQHQR [K2M]	3.1
QSRYHCKECGKVFSQSAGLIQHQR [K2S]	2.48
QIRYHCKECGKVFSQSAGLIQHQR [K2I]	2.81
QARYHCKECGKVFSQSAGLIQHQR [K2A]	2.85
QWRYHCKECGKVFSQSAGLIQHQR [K2W]	2.17
QFRYHCKECGKVFSQSAGLIQHQR [K2F]	2.31
QRRYHCKECGKVFSQSAGLIQHQR [K2R]	2.76
QHRYHCKECGKVFSQSAGLIQHQR [K2H]	3.06
QLRYHCKECGKVFSQSAGLIQHQR [K2L]	2.81

Variant	protein stability index
QNRYHCKECGKVFSQSAGLIQHQR [K2N]	2.86
QVRYHCKECGKVFSQSAGLIQHQR [K2V]	2.58
QGRYHCKECGKVFSQSAGLIQHQR [K2G]	3.31
QYRYHCKECGKVFSQSAGLIQHQR [K2Y]	2.6
QTRYHCKECGKVFSQSAGLIQHQR [K2T]	2.24
QPRYHCKECGKVFSQSAGLIQHQR [K2P]	3.07
QQRYHCKECGKVFSQSAGLIQHQR [K2Q]	3.04
IKRYHCKECGKVFSQSAGLIQHQR [Q1I]	3.03
RKRYHCKECGKVFSQSAGLIQHQR [Q1R]	3.19
GKRYHCKECGKVFSQSAGLIQHQR [Q1G]	2.81
NKRYHCKECGKVFSQSAGLIQHQR [Q1N]	2.32
AKRYHCKECGKVFSQSAGLIQHQR [Q1A]	2.67
VKRYHCKECGKVFSQSAGLIQHQR [Q1V]	3.05
LKRYHCKECGKVFSQSAGLIQHQR [Q1L]	2.62
DKRYHCKECGKVFSQSAGLIQHQR [Q1D]	3.71
HKRYHCKECGKVFSQSAGLIQHQR [Q1H]	2.73
EKRYHCKECGKVFSQSAGLIQHQR [Q1E]	3.7
MKRYHCKECGKVFSQSAGLIQHQR [Q1M]	2.45
WKRYHCKECGKVFSQSAGLIQHQR [Q1W]	1.9
KKRYHCKECGKVFSQSAGLIQHQR [Q1K]	3.1
SKRYHCKECGKVFSQSAGLIQHQR [Q1S]	2.88
CKRYHCKECGKVFSQSAGLIQHQR [Q1C]	2.42
PKRYHCKECGKVFSQSAGLIQHQR [Q1P]	3.16
YKRYHCKECGKVFSQSAGLIQHQR [Q1Y]	2.2
TKRYHCKECGKVFSQSAGLIQHQR [Q1T]	2.98

Variant	protein stability index
FKRYHCKECGKVFSQSAGLIQHQR [Q1F]	2.45
QKRYHDKECGKVFSQSAGLIQHQR [C6D]	3.05
QKRYHEKECGKVFSQSAGLIQHQR [C6E]	3.74
QKRYHFKECGKVFSQSAGLIQHQR [C6F]	2.08
QKRYHAKECGKVFSQSAGLIQHQR [C6A]	2.63
QKRQHCKECGKVFSQSAGLIQHQR [Y4Q]	2.42
QKRAHCKECGKVFSQSAGLIQHQR [Y4A]	1.99
QKRDHCKECGKVFSQSAGLIQHQR [Y4D]	2.48
QKRTHCKECGKVFSQSAGLIQHQR [Y4T]	1.97
QKRSHCKECGKVFSQSAGLIQHQR [Y4S]	2.11
QKRPHCKECGKVFSQSAGLIQHQR [Y4P]	2.47
QKRHHCKECGKVFSQSAGLIQHQR [Y4H]	2.47
QKRCHCKECGKVFSQSAGLIQHQR [Y4C]	2.41
QKRRHCKECGKVFSQSAGLIQHQR [Y4R]	1.98
QKRLHCKECGKVFSQSAGLIQHQR [Y4L]	2.4
QKRMHCKECGKVFSQSAGLIQHQR [Y4M]	2.17
QKRWHCKECGKVFSQSAGLIQHQR [Y4W]	2.86
QKRNHCKECGKVFSQSAGLIQHQR [Y4N]	2.39
QKRFHCKECGKVFSQSAGLIQHQR [Y4F]	2.72
QKRIHCKECGKVFSQSAGLIQHQR [Y4I]	2.4
QKRGHCKECGKVFSQSAGLIQHQR [Y4G]	2.14
QKREHCKECGKVFSQSAGLIQHQR [Y4E]	2.15
QKRKHCKECGKVFSQSAGLIQHQR [Y4K]	2.65
QKRVHCKECGKVFSQSAGLIQHQR [Y4V]	2.25
